# Publication PMC8707168, “PL1 Peptide Engages Acidic Surfaces on Tumor-Associated Fibronectin and Tenascin Isoforms to Trigger Cellular Uptake” (Pharmaceutics, 2021)
# Positions count from the first letter of the chain named. Numbers in names are those of the source. Entries after “also recorded” stand apart in the source; their conditions may differ. FAM = 5(6)-carboxyfluorescein; Ahx = NCCCCCC(=O)O
# T1: TNC-C WT and mutants (Homo sapiens, UniProt P24821, D1565N/D1571N)
# T1 construct: Tenascin C C-isoform (TNC-C); made in house; host or cells: E. coli BL21 Rosetta 2 (DE3) pLysS
# T1 sequence (P24821 1527-1617 D1565N/D1571N): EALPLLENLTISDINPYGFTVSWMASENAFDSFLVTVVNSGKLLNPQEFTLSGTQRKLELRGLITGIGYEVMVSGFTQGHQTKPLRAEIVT
# T2: PL1-functionalized iron oxide nanoworms (FAM-labelled PL1 peptide on NWs)
# T2 chain: PPRRGLIKLKTS
# T3: PL1 peptide displayed on T7 phage
# T3 chain: PPRRGLIKLKTS
# B1: Fibronectin Extra Domain B, wild type, hexahistidine-tagged, P02751 E42Q; D68N; E64Q (protein)
# chain: EVPQLTDLSFVDITDSSIGLRWTPLNSSTIIGYRITVVAAGQGIPIFEDFVDSSVGYYTVTGLQPGINYDISVITLINGGESAPTTLTQQT
# B2: Fibronectin Extra Domain B, wild type, hexahistidine-tagged, P02751 D68N; D70N (protein)
# chain: B1 chain with Q42E, Q64E, D70N
# B3: Tenascin C C-isoform, wild type, hexahistidine-tagged D13N; E70Q; E88Q (protein)
# chain: T1 sequence (P24821 1527-1617 D1565N/D1571N) with D13N, N39D, N45D, E70Q, E88Q
# B4: Tenascin C C-isoform, wild type, hexahistidine-tagged E48Q (protein)
# chain: T1 sequence (P24821 1527-1617 D1565N/D1571N) with N39D, N45D, E48Q
# B5: Tenascin C C-isoform, wild type, hexahistidine-tagged D39N; D45N (protein)
# chain: T1 sequence (P24821 1527-1617 D1565N/D1571N)
# Tests used:
# U87-MG cells = test: Effect of endocytosis inhibitors on PL1-AgNP uptake (flow cytometry); type: cell-based; settings: pre-incubation with 50 μM Nystatin, 50 μM EIPA, 4 μM Cytochalasin D or 10 μM Chlorpromazine, PL1-AgNPs 37 °C 1 h, etching, three independent experiments
# Procedure: For characterization of the AgNP uptake pathway in glioma cells, the U87-MG cells were cultured until 80–90% confluency and pre-incubated with the following endocytosis inhibitors: (1) 50 μM Nystatin to block caveolae/lipid-mediated endocytosis, (2) 50 μM 5-(N-ethyl-N-isopropyl)-Amiloride (EIPA) to block […], (3) 4 μM Cytochalasin D to block actin polymerization and […], and (4) 10 μM Chlorpromazine to block clathrin-mediated endocytosis. The PL1-AgNPs or control biotin-AgNPs were then added, and the cells were incubated at 37 °C for 1 h and subsequently washed to remove free particles. Some samples were also treated with an etching solution to remove accessible surface-bound AgNPs. The fluorescence of the labeled AgNPs was detected and analyzed using the BD Accuri 6 flow cytometer in the 555 nm channel.
# TNC-C WT and mutants = target: T1, TNC-C WT and mutants; test: Binding of PL1 nanoworms to recombinant TNC-C proteins; settings: FAM-labeled NWs, 80 µg/reaction, protein on Ni-NTA beads, fluorescence 485/535 nm, baseline corrected with control protein P32; three independent experiments
# Procedure: (§1) Wild type (WT) TNC-C and FN-EDB were prepared as described previously. The DNA inserts encoding for hexahistidine-tagged mutant TNC-C variants (TNC-C E48Q, TNC-C D39N D45N, TNC-C D13N E70Q E88Q) and mutant FN-EDBs variants (FnEDB D68N D70N, FnEDB D52N D49N D12N, FnEDB E42Q D68N E64Q) were synthesized and cloned into pET28a+ expression vectors (GenScript Biotech BV, Netherlands). The resulting plasmids were transformed into the E. coli BL21 Rosetta 2 (DE3) pLysS strain (Novagen, #70956). The protein expression was induced with 0.5 mM IPTG and followed by culturing at 20 °C for 16 h. The bacterial cells were lysed by sonication (Bandelin Sonopuls HD 2070, Merck, Germany) in ice-cold IMAC buffer (25 mM Tris-HCL, 400 mM NaCl, 25 mM imidazole pH 8, protease inhibitors cocktail, DNase I, 1 mM MgCl2). […] The protein concentration was measured by bicinchoninic acid (BCA) assay (Thermo Scientific #23227). The protein purity and size were analyzed using 15% SDS-PAGE.
# (§2) The recombinant hexahistidine-tagged TNC-C and EDB WT and mutant proteins (at 60 µg of protein/40 µL beads in PBS) were immobilized to Ni-NTA Magnetic Agarose Beads (QIAGEN, Hilden, Germany) at RT for 1 h. […] The fluorescence of eluted samples was quantified using a Victor X5 Multilabel Plate Reader (PerkinElmer, MA, USA) at an excitation wavelength of 485 nm and an emission wavelength of 535 nm.
# FN-EDB WT and mutants = target: T4, FN-EDB WT and mutants (Homo sapiens, UniProt P02751, D1277N/D1314N/D1317N); test: Binding of PL1 nanoworms to recombinant FN-EDB proteins; settings: FAM-labeled NWs, 80 µg/reaction, protein on Ni-NTA beads, fluorescence 485/535 nm, baseline corrected with control protein P32; three independent experiments
# T4 construct: Fibronectin Extra Domain B (FN-EDB); made in house; host or cells: E. coli BL21 Rosetta 2 (DE3) pLysS
# T4 sequence (P02751 1271-1359 D1277N/D1314N/D1317N): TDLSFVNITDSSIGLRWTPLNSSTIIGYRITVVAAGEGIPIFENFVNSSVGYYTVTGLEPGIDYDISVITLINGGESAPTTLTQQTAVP
# Procedure: as §1, §2
# [1] = target: Fibronectin Extra Domain B mutant D52N D49N D12N, hexahistidine-tagged (human); test: binding of fluorescent peptide nanoworms to protein-coated beads; His-tagged proteins (60 µg/40 µL beads) on Ni-NTA magnetic agarose beads; FAM-labelled PL1-NW 80 µg/reaction in PBS, 1% BSA, 0.1% NP40; 6 washes; eluted with 500 mM imidazole; fluorescence 485/535 nm; percent of WT after baseline correction with control protein P32
# [2] = target: T2, PL1-functionalized iron oxide nanoworms …; test: fluorescence readout of FAM-labeled PL1-NW binding to protein-coated NiNTA beads; settings: chain shown with the change; baseline correction with control protein P32; parent: est. 100; read off a plot
# [3] = target: Fibronectin Extra Domain B mutant E42Q D68N E64Q, hexahistidine-tagged (human); test: phage binding assay (titre of eluted phage); His-tagged proteins (30 µg/10 µL beads) on Ni-NTA magnetic agarose beads; T7 phage 5 x 10^8 pfu in 100 µL PBS, 1% BSA, 0.1% NP40, RT, 1 h; 6 washes; eluted with 500 mM imidazole; PFU counted; expressed as percent of WT protein
# [4] = target: Fibronectin Extra Domain B mutant D68N D70N, hexahistidine-tagged (human); test: as above
# [5] = target: Fibronectin Extra Domain B mutant D52N D49N D12N, hexahistidine-tagged (human); test: as above
# [6] = target: Tenascin C C-isoform, wild type, hexahistidine-tagged; test: fluorescence polarisation; fluorescence anisotropy saturation binding in solution; fixed FAM-PL1, 0-112 µM FN-EDB or 0-275 µM TNC-C; PBS with 0.1% Pluronic F-127; 24 h at 25 °C; non-specific binding with 500 µM Biotin-Ahx-PL1; global fit, single site with ligand depletion
# [7] = target: Fibronectin Extra Domain B, wild type, hexahistidine-tagged (human) (UniProt P02751); test: as above
# [8] = target: T3, PL1 peptide displayed on T7 phage; test: phage binding to immobilized recombinant protein (Ni-NTA magnetic beads); settings: chain shown with the change;; parent: est. 100; read off a plot
molecule,measurement,setting,value
CN(C)CCCN1c2ccccc2Sc2ccc(Cl)cc21 [Chlorpromazine],Effect of inhibitor on the uptake of PL1-AgNPs in U87-MG cells,U87-MG cells,statistically significant inhibitory effect
PL1-NW: iron oxide nanoworms coated with PL1 peptide labeled with FAM fluorophore ({FAM-Ahx}-PPRRGLIKLKTS-OH; also: peptide coated on iron oxide nanoworms),Reduction of PL1-NW binding to TNC-C D39N D45N mutant versus WT TNC-C,TNC-C WT and mutants,~ 100%
same,Reduction of PL1-NW binding to FN-EDB D52N D49N D12N mutant versus WT FN-EDB,FN-EDB WT and mutants,~ 76%
C[C@@H]1[C@H](O)[C@@H](C)/C=C/C=C/CC/C=C/C=C/C=C/C=C/C(O[C@H]2O[C@H](C)[C@@H](O)[C@H](N)[C@@H]2O)CC2O[C@](O)(CC(O)C(O)CCC(O)CC(O)CC(O)CC(=O)O[C@H]1C)CC(O)C2C(=O)O (stereo partly shown) [Nystatin],Effect of inhibitor on the uptake of PL1-AgNPs in U87-MG cells,U87-MG cells,statistically significant inhibitory effect
C=C1[C@@H](C)[C@H]2[C@H](Cc3ccccc3)NC(=O)[C@]23[C@H](OC(C)=O)/C=C/[C@@](C)(O)C(=O)[C@@H](C)C/C=C/[C@H]3[C@@H]1O [Cytochalasin D],Effect of inhibitor on the uptake of PL1-AgNPs in U87-MG cells,U87-MG cells,statistically significant inhibitory effect
"CCN(c1nc(N)c(C(=O)N=C(N)N)nc1Cl)C(C)C [EIPA, 5-(N-ethyl-N-isopropyl)-Amiloride]",Effect of inhibitor on the uptake of PL1-AgNPs in U87-MG cells,U87-MG cells,statistically significant inhibitory effect; also recorded: strongest
{FAM-Ahx}-PPRRGLIKLKTS-OH (also: peptide coated on iron oxide nanoworms) [PL1-functionalized iron oxide nanoworms (FAM-labelled PL1 peptide on NWs)],percent reduction of binding against WT FN-EDB,[1],76%
B1,percent of parent (% Change over wt FnEDB),[2],57
B2,percent of parent (% Change over wt FnEDB),[2],29
PPRRGLIKLKTS [PL1 peptide displayed on T7 phage],percent increase of binding against WT FN-EDB,[3],161%
same,percent increase of binding against WT FN-EDB,[4],142%
same,percent decrease of binding against WT FN-EDB,[5],87%
{5(6)‑carboxyfluorescein-Ahx}-PPRRGLIKLKTS-OH [FAM-PL1 peptide (free peptide)],Kd,[6],1.14 µM
same,Kd,[7],1.11 µM
B3,percent of parent (% Change over wt TNC-C),[2],70
same,percent of parent (% Change over wt TNC-C),[8],33
B4,percent of parent (% Change over wt TNC-C),[2],64
same,percent of parent (% Change over wt TNC-C),[8],38
B5,percent of parent (% Change over wt TNC-C),[2],0
